Experimental data as given in US20230303685A1 (ELECTRA THERAPEUTICS, published 2023).

T1: Human SIRPβ1
T1 construct: also called human SIRPβ1 extracellular domain, plate-coated
T1 chain: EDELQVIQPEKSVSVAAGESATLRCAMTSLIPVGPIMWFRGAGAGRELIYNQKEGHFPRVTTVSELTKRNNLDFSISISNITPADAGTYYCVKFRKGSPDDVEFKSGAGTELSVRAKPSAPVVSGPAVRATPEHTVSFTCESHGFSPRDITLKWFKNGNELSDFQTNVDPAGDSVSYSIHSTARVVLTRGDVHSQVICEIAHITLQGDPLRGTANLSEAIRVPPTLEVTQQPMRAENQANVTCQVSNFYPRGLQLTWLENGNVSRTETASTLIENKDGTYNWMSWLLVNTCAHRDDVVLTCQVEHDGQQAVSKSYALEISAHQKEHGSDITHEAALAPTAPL

T2: Human SIRPγ
T2 construct: also called human SIRPγ extracellular domain, plate-coated
T2 chain: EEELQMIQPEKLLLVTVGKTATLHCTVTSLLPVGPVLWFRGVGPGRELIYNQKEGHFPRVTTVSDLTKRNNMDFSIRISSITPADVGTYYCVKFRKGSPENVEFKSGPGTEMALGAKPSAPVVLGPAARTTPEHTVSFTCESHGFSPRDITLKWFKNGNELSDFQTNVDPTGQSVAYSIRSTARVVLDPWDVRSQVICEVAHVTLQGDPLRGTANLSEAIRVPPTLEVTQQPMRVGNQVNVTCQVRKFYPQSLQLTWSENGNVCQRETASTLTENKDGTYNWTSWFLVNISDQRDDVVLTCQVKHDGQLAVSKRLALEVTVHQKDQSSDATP

T3: Human SIRPγ CHO
T3 construct: also called human SIRPγ on CHO cells
T3 chain: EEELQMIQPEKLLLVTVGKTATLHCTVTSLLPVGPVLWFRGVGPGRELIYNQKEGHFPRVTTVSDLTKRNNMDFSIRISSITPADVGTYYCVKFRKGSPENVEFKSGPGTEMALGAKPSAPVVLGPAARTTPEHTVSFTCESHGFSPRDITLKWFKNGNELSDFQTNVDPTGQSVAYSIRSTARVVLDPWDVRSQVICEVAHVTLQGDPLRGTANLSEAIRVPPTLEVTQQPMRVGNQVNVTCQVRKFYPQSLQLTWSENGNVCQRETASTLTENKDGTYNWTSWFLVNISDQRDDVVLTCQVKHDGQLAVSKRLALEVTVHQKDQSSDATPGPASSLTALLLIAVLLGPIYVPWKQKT


Legend:
Human SIRPβ1 = target: T1, Human SIRPβ1; test: ELISA, extracellular domain coated at 2 µg/mL, purified antibody titrated, anti-rat or anti-mouse IgG, chemiluminescence
Method: (§1) Select SIRP antibodies were purified by Protein G from hybridoma supernatants and analyzed in a titration via ELISA. Briefly, 2 μg/mL of extracellular domain of each of the SIRPs was coated onto high protein-binding plates and blocked. Purified antibodies were added in a titration to the coated plates. The antibodies were detected by an anti-rat IgG or an anti-mouse IgG antibody and a chemiluminescent substrate.

Human SIRPγ [1] = target: T2, Human SIRPγ; test: as above
Method: as §1

[2] = target: T4, cynomolgus monkey SIRPα extracellular domain, monomeric (cynomolgus monkey, UniProt A0A2K5VYQ9 31-372); test: as above
T4 construct: extracellular domain; also called Cyno SIRPα
Method: as §1

[3] = target: T5, Human SIRPγ conjugated to an Fc region (human); test: BLI blocking; 200 nM antibody pre-incubated with 20 nM SIRPγ-Fc, binding to immobilised CD47-His (competitor), % of response of SIRPγ-Fc alone
T5 construct: also called SIRPγ-Fc; SIRP-Fc; not shown: Fc region

Human SIRPβ1/DAP12 CHO = target: T6, Human SIRPβ1/DAP12 CHO; test: flow cytometry, stably transfected CHO cells, antibody titrated, labelled anti-rat or anti-mouse IgG, MFI
T6 construct: also called human SIRPβ1 on CHO cells co-transfected with DAP12; copies: 1 + 2
T6 sequence (DAP12, as listed by the source limits assumed): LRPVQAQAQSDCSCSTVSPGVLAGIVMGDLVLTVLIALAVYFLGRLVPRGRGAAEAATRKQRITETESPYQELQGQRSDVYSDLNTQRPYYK
Method: (§2) Selected antibodies were tested for binding to stably transfected human SIRPα, SIRPβ1 (co-transfected with DAP12), or SIRPγ Chinese hamster ovary (CHO) cells via flow cytometry. A titration of SIRP antibodies was added to the cells and detected using a fluorescently labelled secondary antibody. Graph depicts the median fluorescence intensity (MFI) at each concentration.

Human SIRPγ CHO [4] = target: T3, Human SIRPγ CHO; test: as above
Method: as §2

[5] = target: T7, human SIRPα V1-His monomer (human, UniProt P78324 31-373, limits assumed); test: BLI (Octet); antibody on anti-mouse IgG capture tip, SIRP-His monomer at 100, 33.3, 11.1 nM, 1:1 fit, mean KD
T7 construct: 'SIRP-His monomer protein' of the Octet assay; also called SIRP-His; not shown: His tag
Method: (§3) Select SIRP antibodies were tested for their affinities to human SIRPα, SIRPβ1, and SIRPγ using a biolayer interferometry (BLI) Octet system (Pall ForteBio). Each SIRP antibody with rat or mouse Fc was immobilized on a biosensor tip by an anti-mouse IgG capture (AMC). Antibodies with human Fc were digested with gingipain K enzyme to yield monomeric F(ab′), biotinylated, then coated onto streptavidin biosensors. […] The biosensors were then exposed to wash buffer to measure off-rate kinetics. The resulting kinetic data were analyzed and fitted using a 1:1 binding model with kₒₙ and kdis fitted separately at each SIRP-His protein concentration. KD affinities were calculated as kdis to kₒₙ ratio at each concentration of SIRP-His and averaged.

human SIRPγ-His monomer [6] = target: T8, human SIRPγ-His monomer (human); test: as above
T8 construct: 'SIRP-His monomer protein' of the Octet assay; also called SIRP-His; not shown: His tag
Method: as §3

[7] = target: T9, human SIRPα V1 extracellular domain, monomeric (human, UniProt P78324 31-373); test: SPR (Biacore); antibody captured by anti-IgG on chip, monomeric SIRPα extracellular domain as analyte, 1:1 model
T9 construct: also called hSIRPα V1
Method: (§4) Selected antibodies were tested for their affinities to two hSIRPα variants (V1 and V2), and to cynomolgus monkey (herein referred to as “cyno”) SIRPα. The affinities of these SIRP antibodies were determined using surface plasmon resonance. The SIRP antibodies were flowed onto a chip and captured by an anti-mouse IgG or an anti-human IgG covalently coupled to the surface of the chip. A three-point titration of the extracellular binding domain of hSIRPα was performed per the manufacturer's recommended protocols.

[8] = target: T4, cynomolgus monkey SIRPα extracellular …; test: as above
Method: as §4

human SIRPγ-His monomer [9] = target: T8, human SIRPγ-His monomer; test: BLI (Octet); antibody on anti-mouse IgG capture tip, SIRP-His monomer; no dissociation seen in 600 s
Method: as §3

[10] = target: T9, human SIRPα V1 extracellular domain, …; test: ELISA, extracellular domain coated at 1 µg/mL, purified antibody titrated, anti-human IgG, chemiluminescence
Method: as §1, with “1” for “2”, “SIRPα” for “of each of the SIRPs”, “IgG” for “IgG or an anti-mouse IgG”
(§5) FIGS. 3A-3C show binding curves of SIRP antibodies and two isotype controls with human Fc to human SIRPα V1, human SIRPβ1, human SIRPγ and cynomolgus monkey SIRPα by ELISA. […] Isotype control 1 was an unrelated human IgG1 antibody with irrelevant CDRs. Isotype control 2 was the same as isotype control 1 but contained the same amino acid substitutions in the Fc region as some of the selected SIRP antibodies for increased FcγR binding (referring to Table 11). DNA was transiently transfected into CHO cells for 7 days. Antibodies were purified by Protein A from cell supernatants and analyzed in a titration via ELISA as previously described in FIGS. 2A-2B using an anti-human IgG antibody as the detection antibody.

Human SIRPγ [11] = target: T2, Human SIRPγ; test: as above
Method: as §1, with “1” for “2”, “SIRPα” for “of each of the SIRPs”, “IgG” for “IgG or an anti-mouse IgG”
as §5

[12] = target: T10, human SIRPα V2 extracellular domain, monomeric (human, UniProt P78324 31-370); test: SPR (Biacore); antibody captured by anti-IgG on chip, monomeric SIRPα extracellular domain as analyte, 1:1 model
T10 construct: also called hSIRPα V2
Method: as §4

Human SIRPγ CHO [13] = target: T3, Human SIRPγ CHO; test: flow cytometry, stably transfected CHO cells, antibody titrated, labelled anti-human IgG, MFI
Method: as §2

human SIRPβ1-His monomer = target: T11, human SIRPβ1-His monomer (human, UniProt O00241 30-371); test: BLI (Octet); antibody on anti-mouse IgG capture tip, SIRP-His monomer at 100, 33.3, 11.1 nM, 1:1 fit, mean KD
T11 construct: 'SIRP-His monomer protein' of the Octet assay; also called SIRP-His; not shown: His tag
Method: as §3

[14] = target: T9, human SIRPα V1 extracellular domain, …; test: ELISA, extracellular domain coated at 1 µg/mL, purified antibody titrated, anti-rat IgG, chemiluminescence
Method: as §1, with “1” for “2”, “SIRPα” for “of each of the SIRPs”, “IgG” for “IgG or an anti-mouse IgG”

binding result (Human SIRPβ1) | SIRPγ-CD47 Response (%) [3] | binding result (Human SIRPβ1/DAP12 CHO) | Kd [5] | Kd (human SIRPγ-His monomer [6]) | Kd [7] | Kd [8] | Kd (human SIRPγ-His monomer [9]) | EC50 (read off the curve) (Human SIRPγ [11]) | Kd [12] | binding result (Human SIRPγ [1]) | binding result (Human SIRPγ CHO [4]) | Binder | further results
binds | 129% | binds | 0.244 nM | 54.4 nM | – | – | – | – | – | – | – | Antibody 15 (antibody, V domains shown, Mouse variable region, mouse IgG2a Fc; from hybridoma) VH: QIQLVQSGPELKKPGETVKISCKGSGYTFRNFGMNWVKQAPGMGLKWMVWIDTNTGEPTYAEEFKGRFAFSLETSASTAYLQINNLKNEDTATYFCARSRGNYFAMEYWGQGTSVTVSS VL: DIKMTQSPSSMYASLGERVTVTCKASQDINRYLSWFQQKPGKSPKTLIYRANRLVDGVPSRFSGSGSGQDYSLTISSLEYEDMGFYYCLQYDEFPFTFGSGTKLEIK | EC50 (read off the curve) (Human SIRPγ [1]): ~0.2 µg/mL; EC50 (read off the curve) [2]: ~0.1 µg/mL; EC50 (read off the curve) (Human SIRPγ CHO [4]): ~2 µg/mL
– | 111% | – | 0.922 nM | – | 12.6 nM | 16.7 nM | < 0.001 nM | – | – | – | – | Antibody 13 (antibody, V domains shown, Human variable region, rat IgG2b Fc; from hybridoma) VH: EVQMLESGGGLVQPGGSLRLSCAASGFTFSSYAMSWVRQAPGKGLEWVSAISGSGSSTHYADSVKGRFTISRDNSKNTLYLQMNSLRAEDTAVYYCAAYSGSYYYYGMDVWGQGTTVTVSS VL: EIVMTQSPATLSVSPGERATLSCRASQSVSRNLAWYQQKSGQAPRLLIYGASTRATGIPARFSGSGSGTEFTLTISSLQSEDFAGYYCQQYNNWPYTFGQGTKLEIK | –
– | – | – | – | – | 8.32 nM | 11.1 nM | – | ~0.05 µg/mL | 10.3 nM | – | – | Antibody 29 (antibody, V domains shown) VH: EVQMLESGGGLVQPGGSLRLSCAASGFTFSSYAMSWVRQAPGKGLEWVSAISGSGSSTHYADSVKGRFTISRDNSKNTLYLQMNSLRAEDTAVYYCAAYSGSYYYYGMDVWGQGTTVTVSS VL: EIVMTQSPATLSVSPGERATLSCRASQSVSRNLAWYQQKSGQAPRLLIYGASTRATGIPARFSGSGSGTEFTLTISSLQSEDFAGYYCQQYNNWPYTFGQGTKLEIK | EC50 (read off the curve) [10]: ~0.06 µg/mL
– | – | – | – | – | 11.4 nM | 12.6 nM | – | ~0.04 µg/mL | 9.09 nM | – | – | Antibody 25 (antibody, V domains shown, Variable regions of Antibody 13) VH: EVQMLESGGGLVQPGGSLRLSCAASGFTFSSYAMSWVRQAPGKGLEWVSAISGSGSSTHYADSVKGRFTISRDNSKNTLYLQMNSLRAEDTAVYYCAAYSGSYYYYGMDVWGQGTTVTVSS VL: EIVMTQSPATLSVSPGERATLSCRASQSVSRNLAWYQQKSGQAPRLLIYGASTRATGIPARFSGSGSGTEFTLTISSLQSEDFAGYYCQQYNNWPYTFGQGTKLEIK | EC50 (read off the curve) (Human SIRPγ CHO [13]): ~0.7 µg/mL
binds | 120% | binds | 5.31 nM | – | – | – | < 0.001 nM | – | – | binds | binds | Antibody 12 (antibody, V domains shown, Human variable region, rat IgG2b Fc; from hybridoma) VH: EVQVLESGGGLVQPGGSLRLSCAASGFTFSSYAMSWVRQAPGKGLEWVSAISGSGSSTHYADSVKGRFTISRDNSKNTLYLQMNSLRAEDTAVYYCAAYSGSYYYYGMDVWGQGTTVTVSS VL: not shown | –
binds | -3.8% | binds | 3.74 nM | 13.3 nM | – | – | – | – | – | binds | binds | Antibody 11 (antibody, V domains shown, Human variable region, rat IgG2b Fc; from hybridoma) VH: EVQLVESGGGLVQPGGSLRLSCAASGFTFSSYWMHWVRQAPGKGLVWVSRIHNDGSRTSYADSVKGRFTISRDNAKNTLYLQMSSLRAEDTAVYYCTRDPPPYDILTGYPFDYWGQGTLVTVSS VL: DIQMTQSPSSVSASVGDRVTITCRASQDISSWLAWFQQKPGKAPKLLIYGASSLQSGVPSRFSGSGSGTDFTLTISSLQPEDFATYYCQEANSFPYTFGQGTKLEIK | Kd (human SIRPβ1-His monomer): 61.9 nM; EC50 (read off the curve) [14]: ~0.1 µg/mL
